Reference: paper PMC8557471

Biological target: A. thaliana DCL1 DSRM1 (A. thaliana)
Experiment: BLI

fold higher affinity than HYL1 DSRM1 for the same target: 3.4 fold
Substance: A. thaliana HYL1 DSRM2 (domain or fragment)
